Ends that are not written are not given here.
Tests used:
Test in all cases: cyclic peptide substitution array
ApoC3 peptide K60E = molecular target: T1, ApoC3 peptide K60E (human, cyclic (thioether))
T1 peptide: DEFSEFWDLDPEV
Outline: (§1)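 Peptide microarrays incubated with antibody samples, then stained with goat anti-human IgG (Fc) DyLight680 and anti-HA DyLight800 control antibodies, scanned at intensity 7/7 (red/green). Secondary-only pre-stain checked background binding; framing HA peptides served as quality control; substitution effects read as changes in spot intensity.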

ApoC3 peptide D59F = molecular target: T2, ApoC3 peptide D59F (human, thioether (positions not given here); not fully specified (C-terminus, bridges))
T2 peptide: FKFSEFWDLDPEV
Outline: as §1

ApoC3 peptide E63G = molecular target: T3, ApoC3 peptide E63G (human, not fully specified; cyclic (thioether))
T3 peptide: DKFSGFWDLDPEV
Outline: as §1

ApoC3 peptide L67G = molecular target: T4, ApoC3 peptide L67G (human, thioether (positions not given here); not fully specified (bridges); also: thioether between a C-terminal Cys side chain and a modified N-terminus, the Cys is not in the chain)
T4 peptide: DKFSEFWDGDPEV
Outline: as §1

ApoC3 peptide P69G = molecular target: T5, ApoC3 peptide P69G (human, not fully specified; cyclic (thioether))
T5 peptide: DKFSEFWDLDGEV
Outline: as §1

ApoC3 peptide E63H = molecular target: T6, ApoC3 peptide E63H (human, cyclic (thioether))
T6 peptide: DKFSHFWDLDPEV
Outline: as §1

ApoC3 peptide S62I = molecular target: T7, ApoC3 peptide S62I (human, thioether (positions not given here); also: cyclic (thioether), ring places not given here)
T7 peptide: DKFIEFWDLDPEV
Outline: as §1

ApoC3 peptide W65I = molecular target: T8, ApoC3 peptide W65I (human, cyclic (thioether))
T8 peptide: DKFSEFIDLDPEV
Outline: as §1

ApoC3 peptide W65K = molecular target: T9, ApoC3 peptide W65K (human, cyclic (thioether))
T9 peptide: DKFSEFKDLDPEV
Outline: as §1

ApoC3 peptide D66K = molecular target: T10, ApoC3 peptide D66K (human, not fully specified; cyclic (thioether))
T10 peptide: DKFSEFWKLDPEV
Outline: as §1

ApoC3 peptide S62L = molecular target: T11, ApoC3 peptide S62L (human, thioether (positions not given here); also: cyclic (thioether), ring places not given here)
T11 peptide: DKFLEFWDLDPEV
Outline: as §1

ApoC3 peptide F61M = molecular target: T12, ApoC3 peptide F61M (human, cyclic (thioether))
T12 peptide: DKMSEFWDLDPEV
Outline: as §1

ApoC3 peptide S62M = molecular target: T13, ApoC3 peptide S62M (human, thioether (positions not given here); also: cyclic (thioether), ring places not given here)
T13 peptide: DKFMEFWDLDPEV
Outline: as §1

ApoC3 peptide L67M = molecular target: T14, ApoC3 peptide L67M (human, thioether (positions not given here); not fully specified (bridges); also: thioether between a C-terminal Cys side chain and a modified N-terminus, the Cys is not in the chain)
T14 peptide: DKFSEFWDMDPEV
Outline: as §1

ApoC3 peptide E70N = molecular target: T15, ApoC3 peptide E70N (human, cyclic (thioether))
T15 peptide: DKFSEFWDLDPNV
Outline: as §1

ApoC3 peptide D59P = molecular target: T16, ApoC3 peptide D59P (human, thioether (positions not given here); not fully specified (C-terminus, bridges); also: cyclised via thioether between a C-terminal Cys and a modified N-terminus, the Cys and the N-terminal …)
T16 peptide: PKFSEFWDLDPEV
Outline: as §1

ApoC3 peptide L67P = molecular target: T17, ApoC3 peptide L67P (human, thioether (positions not given here); not fully specified (bridges); also: thioether between a C-terminal Cys side chain and a modified N-terminus, the Cys is not in the chain)
T17 peptide: DKFSEFWDPDPEV
Outline: as §1

ApoC3 peptide D66Q = molecular target: T18, ApoC3 peptide D66Q (human, not fully specified; cyclic (thioether))
T18 peptide: DKFSEFWQLDPEV
Outline: as §1

ApoC3 peptide E70Q = molecular target: T19, ApoC3 peptide E70Q (human, cyclic (thioether))
T19 peptide: DKFSEFWDLDPQV
Outline: as §1

ApoC3 peptide F61T = molecular target: T20, ApoC3 peptide F61T (human, cyclic (thioether))
T20 peptide: DKTSEFWDLDPEV
Outline: as §1

ApoC3 peptide W65T = molecular target: T21, ApoC3 peptide W65T (human, cyclic (thioether))
T21 peptide: DKFSEFTDLDPEV
Outline: as §1

ApoC3 peptide D59V = molecular target: T22, ApoC3 peptide D59V (human, thioether (positions not given here); not fully specified (C-terminus, bridges); also: cyclised via thioether between a C-terminal Cys and a modified N-terminus, the Cys and the N-terminal …)
T22 peptide: VKFSEFWDLDPEV
Outline: as §1

ApoC3 peptide K60V = molecular target: T23, ApoC3 peptide K60V (human, cyclic (thioether))
T23 peptide: DVFSEFWDLDPEV
Outline: as §1

ApoC3 peptide D68V = molecular target: T24, ApoC3 peptide D68V (human, not fully specified; cyclic (thioether))
T24 peptide: DKFSEFWDLVPEV
Outline: as §1

ApoC3 peptide W65Y = molecular target: T25, ApoC3 peptide W65Y (human, cyclic (thioether))
T25 peptide: DKFSEFYDLDPEV
Outline: as §1

ApoC3 peptide D66Y = molecular target: T26, ApoC3 peptide D66Y (human, cyclic (thioether))
T26 peptide: DKFSEFWYLDPEV
Outline: as §1

ApoC3 peptide L67Y = molecular target: T27, ApoC3 peptide L67Y (human, thioether (positions not given here); not fully specified (bridges); also: thioether between a C-terminal Cys side chain and a modified N-terminus, the Cys is not in the chain)
T27 peptide: DKFSEFWDYDPEV
Outline: as §1

ApoC3 peptide K60A = molecular target: T28, ApoC3 peptide K60A (human, thioether (positions not given here); not fully specified (bridges); also: cyclic (thioether), positions not given here)
T28 peptide: DAFSEFWDLDPEV
Outline: as §1

ApoC3 peptide V71A = molecular target: T29, ApoC3 peptide V71A (human, thioether (positions not given here); also: cyclic (thioether), ring places not given here)
T29 peptide: DKFSEFWDLDPEA
Outline: as §1

B1: Llama antibody 5E5 (antibody, V domains shown)
VH: QLQLVESGGGLVQPGGSLRLSCAASGFTFGTYSMRWVRQVPRKALEWVSSISTDGGGTAYRDSVKGRFTISRDNAKNTLYLQMNNLKPEDTAIYYCVIAGYSDWGQGTQVTVSS
VL: ATMLTQSPGSLSVVPGESASISCKTSQGLVHSDGKTYFYWFLQKPGQSPQQLIYQVSNRASGVPDRFTGSGSGTDFTLKISGVKAEDAGVYYCAQGTYYPHTFGSGTRLEIK
notes: detected with goat anti-human IgG (Fc); also called mAb 5E5
For B1, the “% of binding to wild-type peptide” value (ApoC3 peptide K60E) was 362%, the “% of binding to wild-type peptide” value (ApoC3 peptide D59F) was 31.6% and the “% of binding to wild-type peptide” value (ApoC3 peptide E63G) was 0%. The “% of binding to wild-type peptide” value (ApoC3 peptide L67G) was 35.2%, the “% of binding to wild-type peptide” value (ApoC3 peptide P69G) was 24.6% and the “% of binding to wild-type peptide” value (ApoC3 peptide E63H) was 49.9%. For the same binder, the “% of binding to wild-type peptide” value (ApoC3 peptide S62I) was 0.64%, the “% of binding to wild-type peptide” value (ApoC3 peptide W65I) was 0% and the “% of binding to wild-type peptide” value (ApoC3 peptide W65K) was 0%. For the same binder, the “% of binding to wild-type peptide” value (ApoC3 peptide D66K) was 0%, the “% of binding to wild-type peptide” value (ApoC3 peptide S62L) was 3.83% and the “% of binding to wild-type peptide” value (ApoC3 peptide F61M) was 68.7%. For the same binder, the “% of binding to wild-type peptide” value (ApoC3 peptide S62M) was 0%, the “% of binding to wild-type peptide” value (ApoC3 peptide L67M) was 12.5% and the “% of binding to wild-type peptide” value (ApoC3 peptide E70N) was 49.6%. The “% of binding to wild-type peptide” value (ApoC3 peptide D59P) was 69.3%, the “% of binding to wild-type peptide” value (ApoC3 peptide L67P) was 25.5% and the “% of binding to wild-type peptide” value (ApoC3 peptide D66Q) was 0%. For the same binder, the “% of binding to wild-type peptide” value (ApoC3 peptide E70Q) was 68%, the “% of binding to wild-type peptide” value (ApoC3 peptide F61T) was 40.3% and the “% of binding to wild-type peptide” value (ApoC3 peptide W65T) was 0%. The “% of binding to wild-type peptide” value (ApoC3 peptide D59V) was 43.3%, the “% of binding to wild-type peptide” value (ApoC3 peptide K60V) was 101% and the “% of binding to wild-type peptide” value (ApoC3 peptide D68V) was 0%. The “% of binding to wild-type peptide” value (ApoC3 peptide W65Y) was 0%, the “% of binding to wild-type peptide” value (ApoC3 peptide D66Y) was 0% and the “% of binding to wild-type peptide” value (ApoC3 peptide L67Y) was 0.02%. For the same binder, the “% of binding to wild-type peptide” value (ApoC3 peptide K60A) was 143% and the “% of binding to wild-type peptide” value (ApoC3 peptide V71A) was 66.3%.

— patent US20190241648A1 (STATEN BIOTECHNOLOGY B V, published 2019)
